According to patent US20200317768A1 (published 2020):

T1: human FcγRIIaR extracellular domain, His-tagged (human, UniProt P12318 34-217)
T1 construct: also called human FcγRIIa (type R); FcgRIIaR
T1 chain: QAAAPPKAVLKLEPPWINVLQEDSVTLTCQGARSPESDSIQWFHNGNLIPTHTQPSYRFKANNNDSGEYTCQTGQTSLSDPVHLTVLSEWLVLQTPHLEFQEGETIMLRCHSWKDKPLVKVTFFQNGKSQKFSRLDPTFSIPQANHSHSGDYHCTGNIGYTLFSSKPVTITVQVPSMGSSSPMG

T2: cynomolgus monkey FcγRIIa3 extracellular domain, His-tagged (cynomolgus monkey)
T2 construct: also called cyno FcγRIIa3; cynoFcgRIIa3
T2 chain: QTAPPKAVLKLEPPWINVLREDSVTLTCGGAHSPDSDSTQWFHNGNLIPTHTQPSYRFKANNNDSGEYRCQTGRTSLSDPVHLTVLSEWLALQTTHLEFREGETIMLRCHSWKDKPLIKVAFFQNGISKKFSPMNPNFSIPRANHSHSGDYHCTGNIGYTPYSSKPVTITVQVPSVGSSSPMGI

T3: cynomolgus monkey FcγRIIIaS extracellular domain, His-tagged (cynomolgus monkey, UniProt Q8SPW2 21-206 at identity 1.00))
T3 construct: also called cyno FcγRIIIaS; cynoFcγRIIIaS
T3 chain: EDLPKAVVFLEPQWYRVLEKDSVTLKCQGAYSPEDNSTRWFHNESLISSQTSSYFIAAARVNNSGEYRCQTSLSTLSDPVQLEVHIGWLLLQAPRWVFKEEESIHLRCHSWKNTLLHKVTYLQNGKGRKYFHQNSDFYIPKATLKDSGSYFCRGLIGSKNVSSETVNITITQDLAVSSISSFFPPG

T4: human FcγRIIaH extracellular domain, His-tagged (human, UniProt P12318 34-217)
T4 construct: also called human FcγRIIa (type H); FcgRIIaH
T4 sequence: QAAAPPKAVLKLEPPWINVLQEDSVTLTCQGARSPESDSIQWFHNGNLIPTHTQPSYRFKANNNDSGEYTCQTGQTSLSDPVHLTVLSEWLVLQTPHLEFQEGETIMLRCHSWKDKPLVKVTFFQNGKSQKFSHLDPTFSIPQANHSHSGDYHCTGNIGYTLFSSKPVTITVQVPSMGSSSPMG

T5: cynomolgus monkey FcγRIIa1 extracellular domain, His-tagged (cynomolgus monkey)
T5 construct: also called cyno FcγRIIa1; cynoFcgRIIa1
T5 chain: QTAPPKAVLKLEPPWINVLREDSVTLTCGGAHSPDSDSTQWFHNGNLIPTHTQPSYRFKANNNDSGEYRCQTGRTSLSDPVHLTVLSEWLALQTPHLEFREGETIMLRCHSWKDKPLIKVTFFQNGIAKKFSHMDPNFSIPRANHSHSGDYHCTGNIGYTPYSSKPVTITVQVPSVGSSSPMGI

T6: human FcγRIIb extracellular domain, His-tagged (human, UniProt P31994 43-217)
T6 construct: also called FcgRIIb (human)
T6 sequence: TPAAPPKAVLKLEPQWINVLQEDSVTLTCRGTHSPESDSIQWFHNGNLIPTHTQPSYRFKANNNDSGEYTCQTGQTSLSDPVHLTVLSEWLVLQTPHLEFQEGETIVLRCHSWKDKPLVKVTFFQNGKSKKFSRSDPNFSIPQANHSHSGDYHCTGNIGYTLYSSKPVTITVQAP

T7: cynomolgus monkey FcγRIIb extracellular domain, His-tagged (cynomolgus monkey)
T7 construct: also called cyno FcγRIIb; cynoFcγRIIb
T7 chain: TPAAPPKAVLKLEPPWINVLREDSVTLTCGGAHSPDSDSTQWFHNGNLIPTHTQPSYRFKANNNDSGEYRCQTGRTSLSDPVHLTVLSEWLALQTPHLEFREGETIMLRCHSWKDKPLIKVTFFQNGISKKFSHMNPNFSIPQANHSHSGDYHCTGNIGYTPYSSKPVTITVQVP

T8: cynomolgus monkey FcγRIIa2 extracellular domain, His-tagged (cynomolgus monkey)
T8 construct: also called cyno FcγRIIa2; cynoFcgRIIa2
T8 chain: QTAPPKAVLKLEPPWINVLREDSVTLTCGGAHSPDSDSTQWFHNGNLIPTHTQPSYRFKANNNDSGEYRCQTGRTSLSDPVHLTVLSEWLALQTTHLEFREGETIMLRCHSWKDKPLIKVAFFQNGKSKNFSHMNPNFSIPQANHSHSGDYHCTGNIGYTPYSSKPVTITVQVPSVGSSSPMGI


Assays:
[1] = target: T1, human FcγRIIaR extracellular domain, …; assay: SPR; KD of SG1 / KD of variant;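 further: relative to parent M103205H795-SG1 carrying the SG1 human heavy chain constant region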
[2] = target: T2, cynomolgus monkey FcγRIIa3 …; assay: SPR; KD of SG1 / KD of variant;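 further: relative to parent M103205H795-SG1 carrying the SG1 human heavy chain constant region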
[3] = target: T9, human FcγRIIIaV extracellular domain, His-tagged (human, UniProt P08637 17-208); assay: SPR; KD of SG1 / KD of variant;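 further: relative to parent M103205H795-SG1 carrying the SG1 human heavy chain constant region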
T9 construct: also called FcgRIIIaV
T9 sequence (P08637 17-208 F176V): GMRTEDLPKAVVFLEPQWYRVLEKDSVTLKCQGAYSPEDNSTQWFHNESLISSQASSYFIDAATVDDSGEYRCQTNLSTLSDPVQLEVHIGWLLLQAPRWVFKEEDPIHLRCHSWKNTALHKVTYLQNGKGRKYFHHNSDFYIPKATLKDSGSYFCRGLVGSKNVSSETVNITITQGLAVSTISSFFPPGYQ

[4] = target: T3, cynomolgus monkey FcγRIIIaS …; assay: SPR; KD of SG1 / KD of variant;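 further: relative to parent M103205H795-SG1 carrying the SG1 human heavy chain constant region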
[5] = target: T4, human FcγRIIaH extracellular domain, …; assay: SPR; KD of SG1 / KD of variant
[6] = target: T5, cynomolgus monkey FcγRIIa1 …; assay: SPR; KD of SG1 / KD of variant
[7] = target: T6, human FcγRIIb extracellular domain, …; assay: SPR; KD of SG1 / KD of variant
[8] = target: T7, cynomolgus monkey FcγRIIb extracellular …; assay: SPR; KD of SG1 / KD of variant
[9] = target: T8, cynomolgus monkey FcγRIIa2 …; assay: SPR; KD of SG1 / KD of variant
[10] = target: T1, human FcγRIIaR extracellular domain, …; assay: SPR, antibody captured, FcgR analyte
Protocol: (§1) The kinetic analysis of interactions between these antibodies and FcγR was carried out using BIACORE® T200 or BIACORE® 4000 (GE Healthcare). HBS-EP+ (GE Healthcare) was used as the running buffer, and the measurement temperature was set to 25° C. A chip produced by immobilizing Protein A. Protein A/G or mouse anti-human IgG kappa light chain (BD Biosciences) onto a Series S Sensor Chip CM4 or CM5 (GE Healthcare) by the amine-coupling method was used. […] After the measurement, the antibody captured on the chip was washed off by allowing reaction with 10 mM glycine-HCl, pH1.5 and 25 mM NaOH so that the chip was regenerated and used repeatedly. The sensorgrams obtained as measurement results were analyzed by the 1:1 Langmuir binding model using the BIACORE® Evaluation Software to calculate the binding rate constant ka (L/mol/s) and dissociation rate constant kd (l/s), and the dissociation constant KD (mol/L) was calculated from these values. […] Regarding such interactions, KD values were calculated using the following 1:1 binding model described in BIACORE® T100 Software Handbook BR1006-48 Edition AE.
(§2) The behavior of interacting molecules according to the 1:1 binding model on BIACORE® can be described by Equation 1: Req=C·R max/(KD+C)+RI, wherein, Req is a plot of steady-state binding levels to analyte concentration. C is concentration, RI is bulk refractive index contribution in the sample, and Rmax is analyte binding capacity of the surface. When this equation is rearranged, KD can be expressed as Equation 2: KD=C·Rmax/(Req−RI)−C. KD can be calculated by substituting the values of Rmax, RI, and C into Equation 1 or Equation 2. From the current measurement conditions, RI=0, C=2 μmol/L can be used.

[11] = target: T2, cynomolgus monkey FcγRIIa3 …; assay: SPR, antibody captured, FcgR analyte
Protocol: as §1, §2

[12] = target: T3, cynomolgus monkey FcγRIIIaS …; assay: SPR, antibody captured, FcgR analyte
Protocol: as §1, §2

[13] = target: T4, human FcγRIIaH extracellular domain, …; assay: SPR, antibody captured, FcgR analyte
Protocol: as §1, §2

[14] = target: T5, cynomolgus monkey FcγRIIa1 …; assay: SPR, antibody captured, FcgR analyte
Protocol: as §1, §2

[15] = target: T6, human FcγRIIb extracellular domain, …; assay: SPR, antibody captured, FcgR analyte
Protocol: as §1, §2

[16] = target: T7, cynomolgus monkey FcγRIIb extracellular …; assay: SPR, antibody captured, FcgR analyte
Protocol: as §1, §2

[17] = target: T8, cynomolgus monkey FcγRIIa2 …; assay: SPR, antibody captured, FcgR analyte
Protocol: as §1, §2

[18] = target: T9, human FcγRIIIaV extracellular domain, …; assay: SPR, antibody captured, FcgR analyte
Protocol: as §1, §2

Binder	KD fold (SG1 = 1) [1] [fold]	KD fold (SG1 = 1) [2] [fold]	KD fold (SG1 = 1) [3] [fold]	KD fold (SG1 = 1) [4] [fold]	KD fold (SG1 = 1) [5] [fold]	KD fold (SG1 = 1) [6] [fold]	KD fold (SG1 = 1) [7] [fold]	KD fold (SG1 = 1) [8] [fold]	KD fold (SG1 = 1) [9] [fold]	Kd [10] [nM]	Kd [11] [nM]	Kd [12] [nM]	Kd [13] [nM]	Kd [14] [nM]	Kd [15] [nM]	Kd [16] [nM]	Kd [17] [nM]	Kd [18] [nM]
M103205H795-MY001/M103202L889-SK1 (antibody, human IgG1, kappa, Substitution put into M103205H795-SG1) heavy: not shown light: DIVMTQSPATLSLSPGERATLSCTSSQSVYHANWLSWFQQKPGQPPKLLIYWASTLAYGVPSRFSGSGSGTDFTLTISSLQPEDAATYYCAGGYGGGRYAFGQGTKVEIKRTVAAPSVFIFPPSDEQLKSGTASVVCLLNNFYPREAKVQWKVDNALQSGNSQESVTEQDSKDSTYSLSSTLTLSKADYEKHKVYACEVTHQGLSSPVTKSFNRGEC	0.1	1.2	0.84	0.03	0.2	1.1	0.6	1	1.4	8200	15000	1200	3200	2900	7700	1800	3500	–
M103205H795-MY074/M103202L889-SK1 (antibody, human IgG1, kappa, Substitution put into M103205H795-SG1) heavy: not shown light: DIVMTQSPATLSLSPGERATLSCTSSQSVYHANWLSWFQQKPGQPPKLLIYWASTLAYGVPSRFSGSGSGTDFTLTISSLQPEDAATYYCAGGYGGGRYAFGQGTKVEIKRTVAAPSVFIFPPSDEQLKSGTASVVCLLNNFYPREAKVQWKVDNALQSGNSQESVTEQDSKDSTYSLSSTLTLSKADYEKHKVYACEVTHQGLSSPVTKSFNRGEC	5.2	2.7	1.45	1.33	7.5	1.6	1.3	1.6	2.2	–	6200	270	92	2000	8600	1100	–	560
M103205H795-MY011/M103202L889-SK1 (antibody, human IgG1, kappa, Put into M103205H795-SG1) heavy: not shown light: DIVMTQSPATLSLSPGERATLSCTSSQSVYHANWLSWFQQKPGQPPKLLIYWASTLAYGVPSRFSGSGSGTDFTLTISSLQPEDAATYYCAGGYGGGRYAFGQGTKVEIKRTVAAPSVFIFPPSDEQLKSGTASVVCLLNNFYPREAKVQWKVDNALQSGNSQESVTEQDSKDSTYSLSSTLTLSKADYEKHKVYACEVTHQGLSSPVTKSFNRGEC	6.5	1.7	2.38	2.4	1.4	1.4	7	1.8	1.8	170	9900	150	490	–	660	1000	2800	340
M103205H795-MY042/M103202L889-SK1 (antibody, human IgG1, kappa, Substitution put into M103205H795-SG1) heavy: not shown light: DIVMTQSPATLSLSPGERATLSCTSSQSVYHANWLSWFQQKPGQPPKLLIYWASTLAYGVPSRFSGSGSGTDFTLTISSLQPEDAATYYCAGGYGGGRYAFGQGTKVEIKRTVAAPSVFIFPPSDEQLKSGTASVVCLLNNFYPREAKVQWKVDNALQSGNSQESVTEQDSKDSTYSLSSTLTLSKADYEKHKVYACEVTHQGLSSPVTKSFNRGEC	1.1	2.1	1.53	0.82	0.7	6.3	1.2	1.1	1.6	980	8000	440	1000	–	4000	1600	3100	530
